From paper PMC2174230 (The Journal of Cell Biology, 1999) come the findings set out here.

For this assay, the target named is T1, GST-Kap122p (S. cerevisiae, UniProt P32767 1-1081).
T1 sequence: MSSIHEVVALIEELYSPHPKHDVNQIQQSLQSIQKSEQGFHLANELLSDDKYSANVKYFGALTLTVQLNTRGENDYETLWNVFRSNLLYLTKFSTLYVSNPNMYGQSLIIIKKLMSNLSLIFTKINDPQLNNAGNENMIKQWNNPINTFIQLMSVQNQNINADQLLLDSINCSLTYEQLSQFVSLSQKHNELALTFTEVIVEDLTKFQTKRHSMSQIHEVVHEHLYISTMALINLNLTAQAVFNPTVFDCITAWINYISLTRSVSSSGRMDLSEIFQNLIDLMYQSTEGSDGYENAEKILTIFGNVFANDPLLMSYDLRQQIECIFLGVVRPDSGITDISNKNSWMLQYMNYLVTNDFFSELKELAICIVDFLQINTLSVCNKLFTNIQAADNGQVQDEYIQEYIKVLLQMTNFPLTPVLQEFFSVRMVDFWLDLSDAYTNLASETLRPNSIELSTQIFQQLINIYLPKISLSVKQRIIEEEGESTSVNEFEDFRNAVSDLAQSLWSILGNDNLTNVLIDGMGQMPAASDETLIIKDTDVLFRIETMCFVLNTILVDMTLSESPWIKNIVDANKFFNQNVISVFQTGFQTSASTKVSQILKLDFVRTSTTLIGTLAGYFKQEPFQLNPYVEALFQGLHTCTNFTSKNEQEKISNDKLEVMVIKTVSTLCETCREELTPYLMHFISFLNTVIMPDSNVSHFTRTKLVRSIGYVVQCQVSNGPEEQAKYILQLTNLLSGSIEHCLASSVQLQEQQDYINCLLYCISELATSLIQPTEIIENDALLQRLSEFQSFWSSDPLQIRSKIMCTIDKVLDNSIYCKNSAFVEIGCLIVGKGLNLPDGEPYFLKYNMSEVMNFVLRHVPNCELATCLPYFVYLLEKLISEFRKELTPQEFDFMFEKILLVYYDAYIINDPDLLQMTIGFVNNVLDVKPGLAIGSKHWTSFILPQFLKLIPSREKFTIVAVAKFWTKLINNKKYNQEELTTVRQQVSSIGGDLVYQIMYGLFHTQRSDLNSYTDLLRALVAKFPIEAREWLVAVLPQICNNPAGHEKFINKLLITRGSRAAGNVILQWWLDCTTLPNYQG
The assay can be described thus: pull-down.

B1: His6-Toa1p/Toa2p complex (recombinant TFIIA) (complex)
chain 1: MSNAEASRVYEIIVESVVNEVREDFENAGIDEQTLQDLKNIWQKKLTETKVTTFSWDNQFNEGNINGVQNDLNFNLATPGVNSSEFNIKEENTGNEGLILPNINSNNNIPHSGETNINTNTVEATNNSGATLNTNTSGNTNADVTSQPKIEVKPEIELTINNANITTVENIDDESEKKDDEEKEEDVEKTRKEKEQIEQVKLQAKKEKRSALLDTDEVGSELDDSDDDYLISEGEEDGPDENLMLCLYDKVTRTKARWKCSLKDGVVTINRNDYTFQKAQVEAEWV
chain 2: MAVPGYYELYRRSTIGNSLVDALDTLISDGRIEASLAMRVLETFDKVVAETLKDNTQSKLTVKGNLDTYGFCDDVWTFIVKNCQVTVEDSHRDASQNGSGDSQSVISVDKLRIVACNSKKSE
In the case of B1, the binding result is recorded as “binds”.
